The source of these data is publication PMC4832192.

The target of the experiment is response regulator PhoP of Mycobacterium tuberculosis (M. tuberculosis) (UniProt P71814). Description: crystal structure.

In general, stoichiometry N refers to the number of molecules, sites or subunits per partner or assembly. “response regulator PhoP of Mycobacterium tuberculosis (from UniProt P71814 1-247) (natural protein)” yielded a stoichiometry N of 2.
